From US20150353608A1
Where a chain is given by its changes, count along the chain named. Ends that are not written are not given here.

B1: recombinant phage displaying polypeptide SEQ ID NO: 68 (protein, T7 phage, not shown: large carriers)
chain: FLVGLHAGAVYDPETGTWYDAAWHLGELVWATYYDPETGTWEPDWQRMLGQ
modifications: ends and bridges not checked
B2: recombinant phage displaying polypeptide SEQ ID NO: 71 (protein, T7 phage, not shown: large carriers)
chain: DGVGPGSRGVYDPETGTWYDAAWHLGELVWATYYDPETGTWEPDWQRMLGQ
modifications: ends and bridges not checked
B3: recombinant phage displaying polypeptide SEQ ID NO: 64 (protein, T7 phage, not shown: large carriers)
chain: IPYGFPGRGEYDPETGTWYDAAWHLGELVWATYYDPETGTWEPDWQRMLGQ
modifications: ends and bridges not checked
B4: recombinant phage displaying polypeptide SEQ ID NO: 70 (protein, T7 phage, not shown: large carriers)
chain: B3 chain with I1W, P2M, Y3E, G4F, F5Y, E10V
modifications: ends and bridges not checked
B5: recombinant phage displaying polypeptide SEQ ID NO: 67 (protein, T7 phage, not shown: large carriers)
chain: VPPRFSSSAQYDPETGTWYDAAWHLGELVWATYYDPETGTWEPDWQRMLGQ
modifications: ends and bridges not checked
B6: recombinant phage displaying polypeptide SEQ ID NO: 69 (protein, T7 phage, not shown: large carriers)
chain: B5 chain with P2V, P3R, R4V, F5D, S6H, Q10V
modifications: ends and bridges not checked
B7: recombinant phage displaying polypeptide SEQ ID NO: 79 (protein, T7 phage, not shown: large carriers)
chain: B5 chain with V1G, P2S, P3C, R4K, A9C, Q10H
modifications: ends and bridges not checked; also: displayed on T7 phage coat protein g10
B8: recombinant phage displaying polypeptide SEQ ID NO: 63 (protein, T7 phage, not shown: large carriers)
chain: SNFVRSPSAWYDPETGTWYDAAWHLGELVWATYYDPETGTWEPDWQRMLGQ
modifications: not fully specified; ends and bridges not checked
B9: polypeptide p17 (peptide)
peptide: GPGISAFSPGRGVYDPETGTWYDAAWHLGELVWATYYDPETGTWEPDWQRMLGQ
B10: variant polypeptide p17_P46A (peptide)
peptide: B9 peptide with P46A
B11: variant polypeptide p17_M51A (peptide)
peptide: B9 peptide with M51A
B12: variant polypeptide p17_W48A (peptide)
peptide: B9 peptide with W48A
B13: variant polypeptide p17_R50A (peptide)
peptide: B9 peptide with R50A
B14: recombinant phage displaying polypeptide SEQ ID NO: 57 (protein, T7 phage, not shown: large carriers)
chain: B9 peptide
modifications: ends and bridges not checked
B15: variant polypeptide p17_D47A (peptide)
peptide: B9 peptide with D47A
B16: recombinant phage displaying polypeptide SEQ ID NO: 72 (protein, T7 phage, not shown: large carriers)
chain: FVSSLPNSAMYDPETGTWYDAAWHLGELVWATYYDPETGTWEPDWQRMLGQ
modifications: ends and bridges not checked
B17: recombinant phage displaying polypeptide SEQ ID NO: 80 (protein, T7 phage, not shown: large carriers)
chain: LIPPGGISPWYDPETGTWYDAAWHLGELVWATYYDPETGTWEPDWQRMLGQ
modifications: ends and bridges not checked
B18: recombinant phage displaying polypeptide SEQ ID NO: 65 (protein, T7 phage, not shown: large carriers)
chain: GPYNIPDSAVYDPETGTWYDAAWHLGELVWATYYDPETGTWEPDWQRMLGQ
modifications: ends and bridges not checked
B19: recombinant phage displaying polypeptide SEQ ID NO: 66 (protein, T7 phage, not shown: large carriers)
chain: B18 chain with G1W, Y3L, I5A, D7S, V10F
modifications: ends and bridges not checked

Legend:
[1] = biological target: human Fc region manufactured by Jackson ImmunoResearch Laboratories, Inc. (human); test: phage ELISA, HRP-labelled Fc
[2] = biological target: Fc region prepared from human monoclonal IgG by papain digestion (human); test: SPR, Fc immobilized
[3] = biological target: human Fc region manufactured by Jackson ImmunoResearch Laboratories, Inc. (human); test: SPR, Fc immobilized, 25 C

| Binder | O.D. 415 [1] | further results |
| --- | --- | --- |
| B1 | 0.186 | – |
| SWRRRGSSYDPRTGTWRSSIAYGGG (peptide, T7 phage, not shown: large carriers, ends and bridges not checked) [recombinant phage displaying polypeptide SEQ ID NO: 14] | 0.282 | – |
| TGRGRSARYDPRTGTWRSSIAYGGG (peptide, T7 phage, not shown: large carriers, ends and bridges not checked) [recombinant phage displaying polypeptide SEQ ID NO: 15] | 0.396 | – |
| B2 | 0.219 | – |
| YDPYTGTWRSSIWVLSG (peptide, T7 phage, not shown: large carriers, ends and bridges not checked) [recombinant phage displaying polypeptide SEQ ID NO: 4] | 0.165 | – |
| B3 | 0.213 | – |
| B4 | 0.189 | – |
| GAVYRRSFYDPRTGTWRSSIAYRGG (peptide, T7 phage, not shown: large carriers, ends and bridges not checked) [recombinant phage displaying polypeptide SEQ ID NO: 19] | 0.353 | – |
| B5 | 0.25 | – |
| B6 | 0.201 | – |
| B7 | 0.329 | – |
| DAAWHLGELVWATYYDPETGTWLPDWQTMAQK [polypeptide pep21] | – | Kd [2]: 100 nM |
| DAAWHLGELVWATYYDPETGTWLPDWQTMAQK (peptide, T7 phage, not shown: large carriers, ends and bridges not checked) [recombinant phage displaying polypeptide SEQ ID NO: 26] | 0.43 | – |
| DAAWHLGELVWATYYDPETGTWLPDWDYMSSK (peptide, T7 phage, not shown: large carriers, ends and bridges not checked) [recombinant phage displaying polypeptide SEQ ID NO: 37] | 0.235 | – |
| GSVVRWRGYDPRTGTWRSSIAYGGG (peptide, T7 phage, not shown: large carriers, ends and bridges not checked) [recombinant phage displaying polypeptide SEQ ID NO: 18] | 0.36 | – |
| B8 | 0.272 | – |
| YDPVTGTWTSSIASWMG (peptide, T7 phage, not shown: large carriers, ends and bridges not checked) [recombinant phage displaying polypeptide SEQ ID NO: 8] | 0.223 | – |
| YDPGTGTWRSYLRFGGG (peptide, T7 phage, not shown: large carriers, ends and bridges not checked) [recombinant phage displaying polypeptide SEQ ID NO: 3] | 0.278 | – |
| DAAWHLGELVWATYYDPETGTWKPDWRMMGVP (peptide, T7 phage, not shown: large carriers, ends and bridges not checked) [recombinant phage displaying polypeptide SEQ ID NO: 36] | 0.287 | – |
| EAWHLGELVWATYYDPETGTWRPDWSRMSGR (peptide, T7 phage, not shown: large carriers, ends and bridges not checked) [recombinant phage displaying polypeptide SEQ ID NO: 55] | 0.252 | – |
| YDPRTGTWLLYASRLLG (peptide, T7 phage, not shown: large carriers, ends and bridges not checked) [recombinant phage displaying polypeptide SEQ ID NO: 7] | 0.214 | – |
| YDPWTGTWRSFIWGGGG (peptide, T7 phage, not shown: large carriers, ends and bridges not checked) [recombinant phage displaying polypeptide SEQ ID NO: 6] | 0.149 | – |
| DAAWHLGELVWATYYDPETGTWEPDWSKMRPQ (peptide, T7 phage, not shown: large carriers, ends and bridges not checked) [recombinant phage displaying polypeptide SEQ ID NO: 34] | 0.281 | – |
| B9 | – | Kd [2]: 1.6 nM |
| B10 | – | Kd [2]: 5.6 nM |

| Binder | O.D. 415 [1] | further results |
| --- | --- | --- |
| B11 | – | Kd [2]: 180 nM; fold decrease of binding activity against p17 [2]: > 100 times |
| B12 | – | Kd [2]: 200 nM; fold decrease of binding activity against p17 [2]: > 100 times |
| B13 | – | Kd [2]: 7.8 nM |
| B14 | 0.229 | – |
| B15 | – | Kd [2]: 45 nM |
| DAAWHLGELVWATYYDPETGTWQPDWDIMAGH (peptide, T7 phage, not shown: large carriers, ends and bridges not checked) [recombinant phage displaying polypeptide SEQ ID NO: 31] | 0.295 | – |
| DAAWHLGELVWATYYDPETGTWLPDWDVMVRQ (peptide, T7 phage, not shown: large carriers, ends and bridges not checked) [recombinant phage displaying polypeptide SEQ ID NO: 32] | 0.352 | – |
| DAAWHLGELVWATYYDPETGTWMPDWDRMLRR (peptide, T7 phage, not shown: large carriers, ends and bridges not checked) [recombinant phage displaying polypeptide SEQ ID NO: 38] | 0.29 | – |
| DAAWHLGELVWATYYDPETGTWQPDWLYMTTR [polypeptide pep14] | – | Kd [2]: 120 nM |
| B16 | 0.229 | – |
| YDPGTGTWRSWLSFNVG (peptide, T7 phage, not shown: large carriers, ends and bridges not checked) [recombinant phage displaying polypeptide SEQ ID NO: 5] | 0.155 | – |
| HWVNGRSGYDPRTGTWRSSIAYGGG (peptide, T7 phage, not shown: large carriers, ends and bridges not checked) [recombinant phage displaying polypeptide SEQ ID NO: 16] | 0.373 | – |
| RSSIAYGGG [polypeptide RSS] | – | Kd [3]: 110000 nM |
| B17 | 0.215 | – |
| B18 | 0.291 | – |
| B19 | 0.182 | – |
| DAAWHLGELVWATYYDPETGTWAPDWRLMQGQ [polypeptide pep11] | – | Kd [2]: 510 nM |
| DAAWHLGELVWATYYDPETGTWEPDWKLMQRP (peptide, T7 phage, not shown: large carriers, ends and bridges not checked) [recombinant phage displaying polypeptide SEQ ID NO: 30] | 0.287 | – |
| YDPRTGTWRRSSLSYSG (peptide, T7 phage, not shown: large carriers, ends and bridges not checked) [recombinant phage displaying polypeptide SEQ ID NO: 9] | 0.193 | – |
| DAAWHLGELVWATYYDPETGTWRPDWAVMATP (peptide, T7 phage, not shown: large carriers, ends and bridges not checked) [recombinant phage displaying polypeptide SEQ ID NO: 35] | 0.32 | – |
| AGSRRAHGYDPRTGTWRSSIAYGGG (peptide, T7 phage, not shown: large carriers, ends and bridges not checked) [recombinant phage displaying polypeptide SEQ ID NO: 12] | 0.267 | – |
| GVVRQWSGGGGSGGGGRSSIAYGGG [polypeptide 2A1Gly] | – | Kd [3]: 23000 nM |
| DAAWHLGELVWATYYDPETGTWTPDWNAMSQR (peptide, T7 phage, not shown: large carriers, ends and bridges not checked) [recombinant phage displaying polypeptide SEQ ID NO: 39] | 0.273 | – |
| DAAWHLGELVWATYYDPETGTWVPDWERMKQH (peptide, T7 phage, not shown: large carriers, ends and bridges not checked) [recombinant phage displaying polypeptide SEQ ID NO: 33] | 0.305 | – |
